Source: patent US20240350544A1 (Takeda / Millennium, published 2024)

Key:
[1] = target: Bio-cyBCMA-His (biotinylated cynomolgus BCMA with His tag) (cynomolgus); experiment: ELISA, scFv periplasmic extract on biotinylated cynomolgus BCMA-His
[2] = target: T1, human BCMA protein (Octet; construct not stated) (human, UniProt Q02223 1-54, limits assumed); experiment: Octet (BLI), scFv periplasmic extract, human BCMA captured on sensor tips
T1 sequence: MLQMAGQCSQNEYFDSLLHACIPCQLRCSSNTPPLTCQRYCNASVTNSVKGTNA

[3] = target: T2, human BCMA on BCMA overexpressing CHO cells (human, UniProt Q02223 1-184); experiment: flow cytometry on human BCMA overexpressing CHO cells
T2 construct: also called hBCMA CHO; Hu BCMA (FACS)
T2 chain: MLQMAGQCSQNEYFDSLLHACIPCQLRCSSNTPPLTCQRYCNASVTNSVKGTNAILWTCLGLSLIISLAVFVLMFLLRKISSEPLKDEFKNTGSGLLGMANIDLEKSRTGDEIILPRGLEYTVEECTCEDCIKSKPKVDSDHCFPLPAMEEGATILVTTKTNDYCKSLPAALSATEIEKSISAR

hBCMA-mIgG2a = target: T3, hBCMA-mIgG2a (human; mouse, UniProt Q02223 1-54, limits assumed); experiment: Octet (BLI), hBCMA-mIgG2a captured on sensor tips
T3 construct: not shown: mouse IgG2a portion ('mIgG2a')
T3 sequence: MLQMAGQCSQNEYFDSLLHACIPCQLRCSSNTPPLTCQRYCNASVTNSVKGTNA

hBCMA-HIS antigen = target: T4, hBCMA-HIS antigen (human, UniProt Q02223 1-54); experiment: Octet (BLI), hBCMA-HIS antigen captured on sensor tips
T4 construct: It may be the same protein as Bio-huBCMA-His without, or with, biotin; also called human BCMA-6His; not shown: His tag
T4 sequence: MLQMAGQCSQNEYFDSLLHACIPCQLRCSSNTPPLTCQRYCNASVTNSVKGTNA

Chain of Bio-cyBCMA-His (biotinylated cynomolgus BCMA with His tag) (cynomolgus) (chain, as listed by the source): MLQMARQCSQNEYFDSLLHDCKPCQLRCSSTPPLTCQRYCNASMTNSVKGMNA

Binder | PE Elisa Bio-cyBCMA-His [1] | EC50 [3] [µg/mL] | Kd (hBCMA-mIgG2a) [nM] | koff (hBCMA-mIgG2a) [s⁻¹] | kon (hBCMA-mIgG2a) [M⁻¹ s⁻¹] | Kd (hBCMA-HIS antigen) [nM] | koff (hBCMA-HIS antigen) [s⁻¹] | kon (hBCMA-HIS antigen) [M⁻¹ s⁻¹] | also measured
anti-BCMA scFv clone from phage display, first row of Table 3 (VH …..., VL with LCDR3 …) (scFv, V domains shown) VH: QITLRESGGDVVQPGRSLRLSCAASGFTFSSYAIHWVRQAPGKGLEWVAVTWHDGSNKYYAESVMGRFTISRDNSKNTLYLHMNSLRAEDTGVYYCARAKFGEPQYFQHWGQGTLVTVSS VL: DIVMTQSPSFLSASVGDRVTITCRASQGISSYLAWYQQKPGKAPKLLIYAASTLQSGVPSRFSGSGSGTEFTLTISSLQPEDFATYYCQQLNSYPWTFGQGTKVDIK | 0.147 | – | – | – | – | – | – | – | –
anti-BCMA scFv clone from phage display, third row of Table 3 (VH …..., VL with LCDR3 …) (scFv, V domains shown) VH: EVQLVESGGDVVQPGRSLRLSCAASGFTFSSYAIHWVRQAPGKGLEWVAVTWHDGSNKYYAESVMGRFTISRDNSKNTLYLHMNSLRAEDTGVYYCARAKFGEPQYFQHWGQGTTVTVSS VL: DIVMTQSPSFLSASVGDRVTITCRASQGISSYLAWYQQKPGKAPKLLIYAASTLQSGVPSRFSGSGSGTEFTLTISSLQPEDFATYYCQQLNSYPFTFGPGTKVDIK | 0.126 | – | – | – | – | – | – | – | –
anti-BCMA scFv clone from phage display, first row of Table 3 (VH QITLRESGG..., VL with LCDR3 QQLNSYPWT) (scFv, V domains shown, Tested as scFv in periplasmic extract; also called Ab 1) VH: QITLRESGGDVVQPGRSLRLSCAASGFTFSSYAIHWVRQAPGKGLEWVAVTWHDGSNKYYAESVMGRFTISRDNSKNTLYLHMNSLRAEDTGVYYCARAKFGEPQYFQHWGQGTLVTVSS VL: DIVMTQSPSFLSASVGDRVTITCRASQGISSYLAWYQQKPGKAPKLLIYAASTLQSGVPSRFSGSGSGTEFTLTISSLQPEDFATYYCQQLNSYPWTFGQGTKVDIK | – | – | – | – | – | – | – | – | koff [2]: 0.000369 s⁻¹
Ab 2, lead anti-BCMA clone of Table 4 (antibody, V domains shown) VH: QITLRESGGDVVQPGRSLRLSCAASGFTFSSYAIHWVRQAPGKGLEWVAVTWHDGSNKYYAESVMGRFTISRDNSKNTLYLHMNSLRAEDTGVYYCARAKFGEPQYFQHWGQGTLVTVSS VL: DIVMTQSPSFLSASVGDRVTITCRASQGINNYLAWYQQKPGIAPKLLIYAASTLQSGVPSRFGGSGSGTEFTLTISSLQPEDFATYYCQQLKSYPFTFGPGTKVEIK | – | 0.144 | 0.0117 | 4.44e-06 | 379000 | 0.0788 | 3.77e-05 | 479000 | –
anti-BCMA scFv clone from phage display, second row of Table 3 (VH …..., VL with LCDR3 …) (scFv, V domains shown) VH: QITLRESGGDVVQPGRSLRLSCAASGFTFSSYAIHWVRQAPGKGLEWVAVTWHDGSNKYYAESVMGRFTISRDNSKNTLYLHMNSLRAEDTGVYYCARAKFGEPQYFQHWGQGTLVTVSS VL: DIVMTQSPSFLSASVGDRVTITCRASQGINNYLAWYQQKPGIAPKLLIYAASTLQSGVPSRFGGSGSGTEFTLTISSLQPEDFATYYCQQLKSYPFTFGPGTKVEIK | 0.122 | – | – | – | – | – | – | – | –
Ab 3, lead anti-BCMA clone of Table 4 (antibody, V domains shown) VH: EVQLVESGGDVVQPGRSLRLSCAASGFTFSSYAIHWVRQAPGKGLEWVAVTWHDGSNKYYAESVMGRFTISRDNSKNTLYLHMNSLRAEDTGVYYCARAKFGEPQYFQHWGQGTTVTVSS VL: DIVMTQSPSFLSASVGDRVTITCRASQGISSYLAWYQQKPGKAPKLLIYAASTLQSGVPSRFSGSGSGTEFTLTISSLQPEDFATYYCQQLNSYPFTFGPGTKVDIK | – | 0.117 | < 0.001 | < 1e-07 | 308000 | 0.0608 | 1.33e-05 | 219000 | –
